Non-standard residues stand in square brackets, D forms with d. pS = N[C@@H](COP(=O)(O)O)C(=O)O
Target: T1, 14-3-3σΔC (human, UniProt P31947 1-231)
T1 sequence (looked up): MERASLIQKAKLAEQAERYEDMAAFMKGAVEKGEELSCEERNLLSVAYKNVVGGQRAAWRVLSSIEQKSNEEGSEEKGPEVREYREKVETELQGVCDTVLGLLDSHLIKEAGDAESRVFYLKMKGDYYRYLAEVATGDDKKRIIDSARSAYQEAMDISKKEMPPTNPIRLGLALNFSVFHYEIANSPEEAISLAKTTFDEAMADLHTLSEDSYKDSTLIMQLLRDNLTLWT
Assay: crystal structure

B1: Ataxin-1 pS776 peptide (AcNH-RKRRWpSAPESR-NH2) (peptide)
peptide: Ac-RKRRW[pS]APESR-NH2
SMILES: CC(=O)N[C@@H](CCCNC(=N)N)C(=O)N[C@@H](CCCCN)C(=O)N[C@@H](CCCNC(=N)N)C(=O)N[C@@H](CCCNC(=N)N)C(=O)N[C@@H](Cc1c[nH]c2ccccc12)C(=O)N[C@@H](COP(=O)(O)O)C(=O)N[C@@H](C)C(=O)N1CCC[C@H]1C(=O)N[C@@H](CCC(=O)O)C(=O)N[C@@H](CO)C(=O)N[C@@H](CCCNC(=N)N)C(N)=O
B1: binds.

From paper PMC8505757 (Journal of Molecular Biology, 2021)
